T1: Aggregatibacter actinomycetemcomitans leukotoxin (LtxA) (Aggregatibacter actinomycetemcomitans …, UniProt P16462 1-1055)
T1 sequence: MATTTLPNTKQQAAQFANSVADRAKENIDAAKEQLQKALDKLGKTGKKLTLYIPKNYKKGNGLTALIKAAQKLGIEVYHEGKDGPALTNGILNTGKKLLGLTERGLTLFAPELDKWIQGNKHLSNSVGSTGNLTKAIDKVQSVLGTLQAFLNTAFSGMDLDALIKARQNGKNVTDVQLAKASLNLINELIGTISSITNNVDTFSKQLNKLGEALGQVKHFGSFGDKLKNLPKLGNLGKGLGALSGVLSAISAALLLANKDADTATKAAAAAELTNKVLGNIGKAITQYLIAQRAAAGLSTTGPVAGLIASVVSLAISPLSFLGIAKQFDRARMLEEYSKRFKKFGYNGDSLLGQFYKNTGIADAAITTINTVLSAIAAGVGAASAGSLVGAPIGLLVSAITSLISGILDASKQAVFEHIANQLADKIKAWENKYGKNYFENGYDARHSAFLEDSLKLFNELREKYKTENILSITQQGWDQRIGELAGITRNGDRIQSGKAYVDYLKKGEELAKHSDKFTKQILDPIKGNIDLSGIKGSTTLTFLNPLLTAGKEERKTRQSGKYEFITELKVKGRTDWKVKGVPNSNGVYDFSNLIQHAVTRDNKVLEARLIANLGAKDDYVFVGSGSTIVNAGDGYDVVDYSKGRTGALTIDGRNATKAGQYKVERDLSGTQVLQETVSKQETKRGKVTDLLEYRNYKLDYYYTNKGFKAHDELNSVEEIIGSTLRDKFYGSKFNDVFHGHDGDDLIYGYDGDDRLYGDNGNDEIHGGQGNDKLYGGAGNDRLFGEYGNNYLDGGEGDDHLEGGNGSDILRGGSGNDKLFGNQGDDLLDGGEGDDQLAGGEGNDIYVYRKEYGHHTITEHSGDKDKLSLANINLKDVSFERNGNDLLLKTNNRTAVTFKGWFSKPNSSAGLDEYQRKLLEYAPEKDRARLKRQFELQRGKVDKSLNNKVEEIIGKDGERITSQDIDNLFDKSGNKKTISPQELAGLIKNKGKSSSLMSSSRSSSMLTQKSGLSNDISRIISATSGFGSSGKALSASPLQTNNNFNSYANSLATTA


These binders were tested against T1, Aggregatibacter actinomycetemcomitans … (assay: SPR).

| Binder | Ka | Kd | koff | kon |
| --- | --- | --- | --- | --- |
| CKVGFFKRQYKEMMEEANGQIAPENGTQTPSPPSEK [αX cytoplasmic tail peptide (integrin αX)] | 5.7e+06 M⁻¹ | 180 nM | 0.022 s⁻¹ | 130000 M⁻¹ s⁻¹ |
| CLKSQWNNDNPLFKSATTTVMNPKFAES [β2C peptide (C-terminal part of the β2 cytoplasmic tail)] | 2e+07 M⁻¹ | 51 nM | 0.00031 s⁻¹ | 6100 M⁻¹ s⁻¹ |
| CKVGFFKRNLKEKMEAGRGVPNGI [αLN peptide (N-terminal, membrane-proximal part of the αL cytoplasmic tail)] | 6.6e+07 M⁻¹ | 16 nM | 0.00013 s⁻¹ | 8400 M⁻¹ s⁻¹ |
| CKLGFFKRQYKDMMSEGGSPGAEPQ [αM cytoplasmic tail peptide (integrin αM)] | 2.5e+06 M⁻¹ | 400 nM | 0.011 s⁻¹ | 28000 M⁻¹ s⁻¹ |
| CKALIHLSDLREYRRFEKEKLKSQ [β2N peptide (N-terminal part of the β2 cytoplasmic tail)] | 9.6e+06 M⁻¹ | 110 nM | 0.00063 s⁻¹ | 6100 M⁻¹ s⁻¹ |
| CGQEAGDPGSLKPLHEKDSESGGGKD [αLC peptide (C-terminal, membrane-distal part of the αL cytoplasmic tail)] | 370000 M⁻¹ | – | – | – |
| CKALIHLSDLREYRRFEKEKLKSQWNN [β2N2 peptide (longer N-terminal part of the β2 cytoplasmic tail, with WNN)] | 1.1e+08 M⁻¹ | 9.4 nM | 0.00013 s⁻¹ | 14000 M⁻¹ s⁻¹ |
| CKALIHLSDLREYRRFEKEKLKSQWNNDNPLFKSATTTVMNPKFAES [β2 cytoplasmic tail peptide (integrin β2, LFA-1 β subunit)] | 2.4e+08 M⁻¹ | 4.2 nM | 0.0001 s⁻¹ | 24000 M⁻¹ s⁻¹ |
| αL cytoplasmic tail peptide (integrin αL, LFA-1 α subunit) (peptide) peptide: CKVGFFKRNLKEKMEAGRGVPNGIPAEDSEQLASGQEAGDPGSLKPLHEKDSESGGGKD | 6.9e+07 M⁻¹ | 15 nM | 0.00012 s⁻¹ | 8500 M⁻¹ s⁻¹ |
| CKLLITIHDRKEFAKFEEERARAKWDTANNPLYKEATSTFTNITYRGT [β3 cytoplasmic tail peptide (integrin β3)] | 4.4e+06 M⁻¹ | 230 nM | 0.0059 s⁻¹ | 26000 M⁻¹ s⁻¹ |

— paper PMC6657692 (Cellular microbiology, 2018)
